# Laboratory results published in paper PMC3378865 (Nucleic Acids Research, 2012).
# B1: OxyR (PA5344) of Pseudomonas aeruginosa PAO1 with a carboxyl-terminal His-tag (natural protein, UniProt Q9HTL4 1-310, looked up)
# chain: MTLTELRYIVTLAQEQHFGRAAERCHVSQPTLSVGVKKLEDELGVLIFERSKSAVRLTPVGEGIVAQAQKVLEQAQGIRELAQAGKNQLAAPLKVGAIYTIGPYLFPHLIPQLHRVAPQMPLYIEENFTHILRDKLRTGELDAIIIALPFQEADVLTKPLFDEPFYVLMPADHPWTAKASIDSELLNDKSLLLLGEGHCFRDQVLEACPTVRKGDENKHTTVESSSLETIRHMVASGLGVSVLPFSAVDSHHYAPGVIEVRPFSAPVPFRTVAIAWRASFPRPRAIEVLADSIRLCSVARPQTQEQPQIA
# Target: the molecule itself
# Assay: cross-linking
protein,measurement,value
B1,stoichiometry N,2
